This assay concerns the target EphB4 Fc (UniProt P54761).

Chain of EphB4 Fc (P54761 16-539): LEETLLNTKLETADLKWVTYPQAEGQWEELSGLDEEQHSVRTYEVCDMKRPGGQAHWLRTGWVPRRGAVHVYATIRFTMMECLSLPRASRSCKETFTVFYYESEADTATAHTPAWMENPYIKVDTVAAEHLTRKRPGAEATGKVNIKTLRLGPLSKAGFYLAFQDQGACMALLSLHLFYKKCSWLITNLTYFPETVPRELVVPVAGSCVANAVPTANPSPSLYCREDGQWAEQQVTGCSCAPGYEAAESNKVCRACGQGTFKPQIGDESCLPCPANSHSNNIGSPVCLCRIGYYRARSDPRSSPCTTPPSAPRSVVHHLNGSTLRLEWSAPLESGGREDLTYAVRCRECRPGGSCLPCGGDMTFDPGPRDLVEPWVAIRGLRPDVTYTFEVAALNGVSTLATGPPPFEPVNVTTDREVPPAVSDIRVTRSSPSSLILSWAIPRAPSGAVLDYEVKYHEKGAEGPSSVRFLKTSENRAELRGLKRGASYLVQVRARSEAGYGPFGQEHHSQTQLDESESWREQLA

On to “PEGylated TNYL-RAW (PEG-TNYL-RAW) (peptide)”, for which the inhibition of ephrin-B2 Fc-induced tyrosine phosphorylation of endogenous EphB4 in B16 melanoma cells (blocks EphB4 with ephrin-B2); 2 µM peptide reduce phosphorylation to undetectable levels stood at 90 nM.
